Results taken from patent US20200087373A1 (UNIVERSITY OF COPENHAGEN, published 2020).
Ends that are not written are not given here. * marks the point of attachment. Stearoyl = CCCCCCCCCCCCCCCCCC(=O)*; Palmitoyl = CCCCCCCCCCCCCCCC(=O)*; Myristoyl = CCCCCCCCCCCCCC(=O)*; Lauroyl = CCCCCCCCCCCC(=O)*; Dodecyl = CCCCCCCCCCCC*

T1: human GIP receptor (human, UniProt P48546 22-466)
T1 sequence (looked up): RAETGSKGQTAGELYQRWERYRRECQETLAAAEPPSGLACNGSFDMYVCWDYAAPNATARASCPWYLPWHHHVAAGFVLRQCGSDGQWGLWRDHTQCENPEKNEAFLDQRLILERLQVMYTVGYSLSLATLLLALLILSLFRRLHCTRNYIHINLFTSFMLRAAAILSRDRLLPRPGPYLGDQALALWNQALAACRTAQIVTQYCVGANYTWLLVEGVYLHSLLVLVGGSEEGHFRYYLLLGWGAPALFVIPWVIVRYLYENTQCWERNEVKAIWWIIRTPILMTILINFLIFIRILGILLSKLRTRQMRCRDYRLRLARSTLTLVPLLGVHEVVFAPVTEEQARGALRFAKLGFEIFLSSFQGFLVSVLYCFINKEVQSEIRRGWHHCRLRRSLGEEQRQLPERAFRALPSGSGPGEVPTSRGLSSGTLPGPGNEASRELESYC


Target: T1, human GIP receptor
Test: cell-based or functional assay

Binder | cAMP agonism, EC50 (log) [log M] | cAMP agonism, Emax [%] | cAMP agonism, nM (EC50) [nM] | cAMP antagonism, log (IC50) [log M] | cAMP antagonism, nM (IC50) [nM]
EGTFISDYSIAMDK(Palmitoyl)IHQQDFVNWLLAQK-NH2 [AT105 [hGIP(3-30)NH2-C16/16]] | -5.9 | 34 | 1140 | -7.6 | 24
EGTFISDYSIAMDKIHQQDFVNWLLAQK(Palmitoyl)-NH2 [AT106 [hGIP(3-30)NH2-C16/30]] | -6.4 | 64 | 390 |  | 
EGWFISDYSIAMEK(Palmitoyl)IAQQDFVNWLLAQK-NH2 (N-terminus assumed; SMILES CCCCCCCCCCCCCCCC(=O)NCCCC[C@H](NC(=O)[C@H](CCC(=O)O)NC(=O)[C@H](CCSC)NC(=O)[C@H](C)NC(=O)[C@@H](NC(=O)[C@H](CO)NC(=O)[C@H](Cc1ccc(O)cc1)NC(=O)[C@H](CC(=O)O)NC(=O)[C@H](CO)NC(=O)[C@@H](NC(=O)[C@H](Cc1ccccc1)NC(=O)[C@H](Cc1c[nH]c2ccccc12)NC(=O)CNC(=O)[C@@H](N)CCC(=O)O)[C@@H](C)CC)[C@@H](C)CC)C(=O)N[C@H](C(=O)N[C@@H](C)C(=O)N[C@@H](CCC(N)=O)C(=O)N[C@@H](CCC(N)=O)C(=O)N[C@@H](CC(=O)O)C(=O)N[C@@H](Cc1ccccc1)C(=O)N[C@H](C(=O)N[C@@H](CC(N)=O)C(=O)N[C@@H](Cc1c[nH]c2ccccc12)C(=O)N[C@@H](CC(C)C)C(=O)N[C@@H](CC(C)C)C(=O)N[C@@H](C)C(=O)N[C@@H](CCC(N)=O)C(=O)N[C@@H](CCCCN)C(N)=O)C(C)C)[C@@H](C)CC) [AT107 [hGIP(3-30)NH2[T5W; D15E; H18A]-C16/16]] | -5.9 | 23 | 1300 | -7.1 | 77
Myristoyl-EGTFISDYSIAMDKIHQQDFVNWLLAQK-NH2 [AT110 [hGIP(3-30)NH2-C14/3]] | -8.4 | 64 | 3.6 |  | 
EGTFISDYSIAMDK(Myristoyl)IHQQDFVNWLLAQK-NH2 [AT111 [hGIP(3-30)NH2-C14/16]] |  | 0 |  | -7.6 | 22
EGTFISDYSIAMDKIHQQDFVNWLLAQK(Myristoyl)-NH2 [AT112 [hGIP(3-30)NH2-C14/30]] | -5.4 | 29 | 3950 |  | 
Stearoyl-EGTFISDYSIAMDKIHQQDFVNWLLAQK-NH2 [AT113 [hGIP(3-30)NH2-C18/3]] | -8 | 77 | 9.9 |  | 
EGTFISDYSIAMDK(Stearoyl)IHQQDFVNWLLAQK-NH2 [AT114 [hGIP(3-30)NH2-C18/16]] | -5.5 | 39 | 2960 | -7.2 | 46
EGTFISDYSIAMDKIHQQDFVNWLLAQK(Stearoyl)-NH2 [AT115 [hGIP(3-30)NH2-C18/30]] | -6.9 |  | 134 |  | 
EGTFISDYSIAMDKIK(Lauroyl)QQDFVNWLLAQK-NH2 (N-terminus assumed; SMILES CCCCCCCCCCCC(=O)NCCCC[C@H](NC(=O)[C@@H](NC(=O)[C@H](CCCCN)NC(=O)[C@H](CC(=O)O)NC(=O)[C@H](CCSC)NC(=O)[C@H](C)NC(=O)[C@@H](NC(=O)[C@H](CO)NC(=O)[C@H](Cc1ccc(O)cc1)NC(=O)[C@H](CC(=O)O)NC(=O)[C@H](CO)NC(=O)[C@@H](NC(=O)[C@H](Cc1ccccc1)NC(=O)[C@@H](NC(=O)CNC(=O)[C@@H](N)CCC(=O)O)[C@@H](C)O)[C@@H](C)CC)[C@@H](C)CC)[C@@H](C)CC)C(=O)N[C@@H](CCC(N)=O)C(=O)N[C@@H](CCC(N)=O)C(=O)N[C@@H](CC(=O)O)C(=O)N[C@@H](Cc1ccccc1)C(=O)N[C@H](C(=O)N[C@@H](CC(N)=O)C(=O)N[C@@H](Cc1c[nH]c2ccccc12)C(=O)N[C@@H](CC(C)C)C(=O)N[C@@H](CC(C)C)C(=O)N[C@@H](C)C(=O)N[C@@H](CCC(N)=O)C(=O)N[C@@H](CCCCN)C(N)=O)C(C)C) [AT116 [hGIP(3-30)NH2-C12/18]] |  | 0 |  | -7.9 | 12
EGTFISDYSIAMDKIK(Palmitoyl)QQDFVNWLLAQK-NH2 (N-terminus assumed; SMILES CCCCCCCCCCCCCCCC(=O)NCCCC[C@H](NC(=O)[C@@H](NC(=O)[C@H](CCCCN)NC(=O)[C@H](CC(=O)O)NC(=O)[C@H](CCSC)NC(=O)[C@H](C)NC(=O)[C@@H](NC(=O)[C@H](CO)NC(=O)[C@H](Cc1ccc(O)cc1)NC(=O)[C@H](CC(=O)O)NC(=O)[C@H](CO)NC(=O)[C@@H](NC(=O)[C@H](Cc1ccccc1)NC(=O)[C@@H](NC(=O)CNC(=O)[C@@H](N)CCC(=O)O)[C@@H](C)O)[C@@H](C)CC)[C@@H](C)CC)[C@@H](C)CC)C(=O)N[C@@H](CCC(N)=O)C(=O)N[C@@H](CCC(N)=O)C(=O)N[C@@H](CC(=O)O)C(=O)N[C@@H](Cc1ccccc1)C(=O)N[C@H](C(=O)N[C@@H](CC(N)=O)C(=O)N[C@@H](Cc1c[nH]c2ccccc12)C(=O)N[C@@H](CC(C)C)C(=O)N[C@@H](CC(C)C)C(=O)N[C@@H](C)C(=O)N[C@@H](CCC(N)=O)C(=O)N[C@@H](CCCCN)C(N)=O)C(C)C) [AT117 [hGIP(3-30)NH2[H18K]-C16/18]] |  | 0 |  | -7.8 | 15
EGTFISDYSIAMEKIAQQDFVNWLLAQK(Dodecyl)-NH2 [AT130 [hGIP(3-30)NH2[D15E; H18A]-C12/30]] | -5.1 | 49 | 8690 |  | 
EGTFISDYSIAMEK(Palmitoyl)IAQQDFVNWLLAQK-NH2 (N-terminus assumed; SMILES CCCCCCCCCCCCCCCC(=O)NCCCC[C@H](NC(=O)[C@H](CCC(=O)O)NC(=O)[C@H](CCSC)NC(=O)[C@H](C)NC(=O)[C@@H](NC(=O)[C@H](CO)NC(=O)[C@H](Cc1ccc(O)cc1)NC(=O)[C@H](CC(=O)O)NC(=O)[C@H](CO)NC(=O)[C@@H](NC(=O)[C@H](Cc1ccccc1)NC(=O)[C@@H](NC(=O)CNC(=O)[C@@H](N)CCC(=O)O)[C@@H](C)O)[C@@H](C)CC)[C@@H](C)CC)C(=O)N[C@H](C(=O)N[C@@H](C)C(=O)N[C@@H](CCC(N)=O)C(=O)N[C@@H](CCC(N)=O)C(=O)N[C@@H](CC(=O)O)C(=O)N[C@@H](Cc1ccccc1)C(=O)N[C@H](C(=O)N[C@@H](CC(N)=O)C(=O)N[C@@H](Cc1c[nH]c2ccccc12)C(=O)N[C@@H](CC(C)C)C(=O)N[C@@H](CC(C)C)C(=O)N[C@@H](C)C(=O)N[C@@H](CCC(N)=O)C(=O)N[C@@H](CCCCN)C(N)=O)C(C)C)[C@@H](C)CC) [AT131 [hGIP(3-30)NH2[D15E; H18A]-C16/16]] | -4.9 | 35 | 11800 | -7.4 | 65
